# From patent publication US20190202921A1 (Five Prime, published 2019)
# T1: mouse CSF1R ECD (mouse, UniProt P09581 20-515)
# T1 construct: extracellular domain
# T1 sequence (looked up): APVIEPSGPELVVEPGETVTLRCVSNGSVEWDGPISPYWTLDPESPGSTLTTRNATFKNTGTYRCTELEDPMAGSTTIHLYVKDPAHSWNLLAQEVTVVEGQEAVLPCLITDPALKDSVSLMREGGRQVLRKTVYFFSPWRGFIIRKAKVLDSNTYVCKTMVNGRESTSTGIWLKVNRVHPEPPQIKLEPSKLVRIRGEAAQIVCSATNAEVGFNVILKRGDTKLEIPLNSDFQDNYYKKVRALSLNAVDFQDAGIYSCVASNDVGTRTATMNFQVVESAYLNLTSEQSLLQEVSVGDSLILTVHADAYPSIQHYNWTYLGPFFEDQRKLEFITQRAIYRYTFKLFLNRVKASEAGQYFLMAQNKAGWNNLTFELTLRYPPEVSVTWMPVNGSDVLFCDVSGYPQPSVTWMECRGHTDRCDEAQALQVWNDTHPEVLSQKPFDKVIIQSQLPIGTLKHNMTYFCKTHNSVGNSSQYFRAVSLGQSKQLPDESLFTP
# T2: cynomolgus monkey CSF1R ECD (cynomolgus monkey, UniProt P07333 20-505 (human entry))
# T2 construct: also called cynoCSF1R ECD
# T2 chain: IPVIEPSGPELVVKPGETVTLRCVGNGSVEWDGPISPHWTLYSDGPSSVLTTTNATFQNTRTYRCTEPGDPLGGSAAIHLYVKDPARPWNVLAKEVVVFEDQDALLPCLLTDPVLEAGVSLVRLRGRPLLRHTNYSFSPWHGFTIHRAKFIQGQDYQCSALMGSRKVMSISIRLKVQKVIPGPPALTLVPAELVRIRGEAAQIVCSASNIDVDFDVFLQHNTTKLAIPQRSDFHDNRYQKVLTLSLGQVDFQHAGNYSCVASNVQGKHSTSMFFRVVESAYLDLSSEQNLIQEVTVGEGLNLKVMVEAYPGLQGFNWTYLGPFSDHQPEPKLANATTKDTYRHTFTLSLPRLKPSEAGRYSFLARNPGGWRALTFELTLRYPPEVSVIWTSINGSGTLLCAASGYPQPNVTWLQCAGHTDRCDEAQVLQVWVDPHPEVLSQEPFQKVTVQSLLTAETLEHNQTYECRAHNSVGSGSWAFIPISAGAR
# Assays:
# [1] = biological target: T1, mouse CSF1R ECD; test: binding test as described in WO 2011/140249
# [2] = biological target: T2, cynomolgus monkey CSF1R ECD; test: binding test as described in WO 2011/140249
binding result [1],binding result [2],Binder
no binding,binds,"huAb12 (antibody, human IgG4 S228P, kappa, V domains shown, also called huAb 0302-L2H2; h0302-H2 / h0302-L2) VH: QVQLVQSGAEVKKPGSSVKVSCKASGYTFSDFNIHWVRQAPGQGLEWIGYINPYTDVTVYNEKFKGRATLTSDKSTSTAYMELSSLRSEDTAVYYCASYFDGTFDYALDYWGQGTLVTVSS VL: EIVVTQSPATLSLSPGERATLSCRASESVDNYGLSFMNWFQQKPGQAPRLLIYTASNLESGIPARFSGSGSRTDFTLTISSLEPEDFAVYYCQQSKELPWTFGQGTKVEIKR"
no binding,binds,"huAb9 (antibody, human IgG4 S228P, kappa, V domains shown, also called huAb 0302-L2H1; h0302-H1 / h0302-L2) VH: QVQLVQSGAEVKKPGSSVKVSCKASGYTFSDFNIHWVRQAPGQGLEWMGYINPYTDVTVYNEKFKGRVTITSDKSTSTAYMELSSLRSEDTAVYYCASYFDGTFDYALDYWGQGTLVTVSS VL: EIVVTQSPATLSLSPGERATLSCRASESVDNYGLSFMNWFQQKPGQAPRLLIYTASNLESGIPARFSGSGSRTDFTLTISSLEPEDFAVYYCQQSKELPWTFGQGTKVEIKR"
no binding,binds,"huAb15 (antibody, human IgG4 S228P, kappa, V domains shown, also called huAb 0311-L0H2; h0311-H2 / h0311-L0) VH: QVQLVQSGAEVKKPGSSVKVSCKASGYIFTDYNMHWVRQAPGQGLEWMGEINPNNGVVVYNQKFKGTTTLTVDKSTSTAYMELSSLRSEDTAVYYCTRALYHSNFGWYFDSWGQGTLVTVSS VL: EIVLTQSPATLSLSPGERATLSCKASQSVDYDGDSHMNWYQQKPGQAPRLLIYTASNLESGIPARFSGSGSGTDFTLTISSLEPEDFAVYYCQQGNEDPWTFGQGTKVEIKR"
no binding,binds,"huAb7 (antibody, human IgG4 S228P, kappa, V domains shown, also called huAb 0302-L0H1; h0302-H1 / h0302-L0) VH: QVQLVQSGAEVKKPGSSVKVSCKASGYTFSDFNIHWVRQAPGQGLEWMGYINPYTDVTVYNEKFKGRVTITSDKSTSTAYMELSSLRSEDTAVYYCASYFDGTFDYALDYWGQGTLVTVSS VL: EIVLTQSPATLSLSPGERATLSCRASESVDNYGLSFMNWYQQKPGQAPRLLIYTASNLESGIPARFSGSGSGTDFTLTISSLEPEDFAVYYCQQSKELPWTFGQGTKVEIKR"
no binding,binds,"huAb14 (antibody, human IgG4 S228P, kappa, V domains shown, also called huAb 0311-L1H1; h0311-H1 / h0311-L1) VH: QVQLVQSGAEVKKPGSSVKVSCKASGYIFTDYNMHWVRQAPGQGLEWMGEINPNNGVVVYNQKFKGRVTITVDKSTSTAYMELSSLRSEDTAVYYCTRALYHSNFGWYFDSWGQGTLVTVSS VL: DIVLTQSPATLSLSPGERATLSCKASQSVDYDGDSHMNWYQQKPGQAPRLLIYTASNLESGIPARFSGSGSGADFTLTISSLEPEDFAVYYCQQGNEDPWTFGQGTKVEIKR"
no binding,binds,"huAb11 (antibody, human IgG4 S228P, kappa, V domains shown, also called huAb 0302-L1H2; h0302-H2 / h0302-L1) VH: QVQLVQSGAEVKKPGSSVKVSCKASGYTFSDFNIHWVRQAPGQGLEWIGYINPYTDVTVYNEKFKGRATLTSDKSTSTAYMELSSLRSEDTAVYYCASYFDGTFDYALDYWGQGTLVTVSS VL: EIVLTQSPATLSLSPGERATLSCRASESVDNYGLSFMNWYQQKPGQAPRLLIYTASNLESGIPARFSGSGSRTDFTLTISSLEPEDFAVYYCQQSKELPWTFGQGTKVEIKR"
no binding,binds,"huAb16 (antibody, human IgG4 S228P, kappa, V domains shown, also called huAb 0311-L1H2; h0311-H2 / h0311-L1) VH: QVQLVQSGAEVKKPGSSVKVSCKASGYIFTDYNMHWVRQAPGQGLEWMGEINPNNGVVVYNQKFKGTTTLTVDKSTSTAYMELSSLRSEDTAVYYCTRALYHSNFGWYFDSWGQGTLVTVSS VL: DIVLTQSPATLSLSPGERATLSCKASQSVDYDGDSHMNWYQQKPGQAPRLLIYTASNLESGIPARFSGSGSGADFTLTISSLEPEDFAVYYCQQGNEDPWTFGQGTKVEIKR"
no binding,binds,"huAb10 (antibody, human IgG4 S228P, kappa, V domains shown, also called huAb 0302-L0H2; h0302-H2 / h0302-L0) VH: QVQLVQSGAEVKKPGSSVKVSCKASGYTFSDFNIHWVRQAPGQGLEWIGYINPYTDVTVYNEKFKGRATLTSDKSTSTAYMELSSLRSEDTAVYYCASYFDGTFDYALDYWGQGTLVTVSS VL: EIVLTQSPATLSLSPGERATLSCRASESVDNYGLSFMNWYQQKPGQAPRLLIYTASNLESGIPARFSGSGSGTDFTLTISSLEPEDFAVYYCQQSKELPWTFGQGTKVEIKR"

# The next lines start with the binder.
Binder,binding result [1],binding result [2]
"huAb2 (antibody, human IgG4 S228P, kappa, also called huAb 0301-L0H1; h0301-H1 / h0301-L0) heavy: not shown light: EIVLTQSPATLSLSPGERATLSCKASQSVDYDGDNYMNWYQQKPGQAPRLLIYAASNLESGIPARFSGSGSGTDFTLTISSLEPEDFAVYYCHLSNEDLSTFGGGTKVEIKRTVAAPSVFIFPPSDEQLKSGTASVVCLLNNFYPREAKVQWKVDNALQSGNSQESVTEQDSKDSTYSLSSTLTLSKADYEKHKVYACEVTHQGLSSPVTKSFNRGEC",no binding,binds
"huAb3 (antibody, human IgG4 S228P, kappa, also called huAb 0301-L0H2; h0301-H2 / h0301-L0) heavy: not shown light: EIVLTQSPATLSLSPGERATLSCKASQSVDYDGDNYMNWYQQKPGQAPRLLIYAASNLESGIPARFSGSGSGTDFTLTISSLEPEDFAVYYCHLSNEDLSTFGGGTKVEIKRTVAAPSVFIFPPSDEQLKSGTASVVCLLNNFYPREAKVQWKVDNALQSGNSQESVTEQDSKDSTYSLSSTLTLSKADYEKHKVYACEVTHQGLSSPVTKSFNRGEC",no binding,binds
"huAb1 (antibody, human IgG4 S228P, kappa, also called huAb 0301-L0H0; FPA008) heavy: not shown light: EIVLTQSPATLSLSPGERATLSCKASQSVDYDGDNYMNWYQQKPGQAPRLLIYAASNLESGIPARFSGSGSGTDFTLTISSLEPEDFAVYYCHLSNEDLSTFGGGTKVEIKRTVAAPSVFIFPPSDEQLKSGTASVVCLLNNFYPREAKVQWKVDNALQSGNSQESVTEQDSKDSTYSLSSTLTLSKADYEKHKVYACEVTHQGLSSPVTKSFNRGEC",no binding,binds
"huAb5 (antibody, human IgG4 S228P, kappa, also called huAb 0301-L1H1; h0301-H1 / h0301-L1) heavy: not shown light: NIVLTQSPATLSLSPGERATLSCKASQSVDYDGDNYMNWYQQKPGQAPRLLIYAASNLESGIPARFSGSGSGTDFTLTISSLEPEDFAVYYCHLSNEDLSTFGGGTKVEIKRTVAAPSVFIFPPSDEQLKSGTASVVCLLNNFYPREAKVQWKVDNALQSGNSQESVTEQDSKDSTYSLSSTLTLSKADYEKHKVYACEVTHQGLSSPVTKSFNRGEC",no binding,binds
"huAb6 (antibody, human IgG4 S228P, kappa, also called huAb 0301-L1H2; h0301-H2 / h0301-L1) heavy: not shown light: NIVLTQSPATLSLSPGERATLSCKASQSVDYDGDNYMNWYQQKPGQAPRLLIYAASNLESGIPARFSGSGSGTDFTLTISSLEPEDFAVYYCHLSNEDLSTFGGGTKVEIKRTVAAPSVFIFPPSDEQLKSGTASVVCLLNNFYPREAKVQWKVDNALQSGNSQESVTEQDSKDSTYSLSSTLTLSKADYEKHKVYACEVTHQGLSSPVTKSFNRGEC",no binding,binds
"huAb4 (antibody, human IgG4 S228P, kappa, also called huAb 0301-L1H0; h0301-H0 / h0301-L1) heavy: not shown light: NIVLTQSPATLSLSPGERATLSCKASQSVDYDGDNYMNWYQQKPGQAPRLLIYAASNLESGIPARFSGSGSGTDFTLTISSLEPEDFAVYYCHLSNEDLSTFGGGTKVEIKRTVAAPSVFIFPPSDEQLKSGTASVVCLLNNFYPREAKVQWKVDNALQSGNSQESVTEQDSKDSTYSLSSTLTLSKADYEKHKVYACEVTHQGLSSPVTKSFNRGEC",no binding,binds
"huAb8 (antibody, human IgG4 S228P, kappa, V domains shown, also called huAb 0302-L1H1; h0302-H1 / h0302-L1) VH: QVQLVQSGAEVKKPGSSVKVSCKASGYTFSDFNIHWVRQAPGQGLEWMGYINPYTDVTVYNEKFKGRVTITSDKSTSTAYMELSSLRSEDTAVYYCASYFDGTFDYALDYWGQGTLVTVSS VL: EIVLTQSPATLSLSPGERATLSCRASESVDNYGLSFMNWYQQKPGQAPRLLIYTASNLESGIPARFSGSGSRTDFTLTISSLEPEDFAVYYCQQSKELPWTFGQGTKVEIKR",no binding,binds
"huAb13 (antibody, human IgG4 S228P, kappa, V domains shown, also called huAb 0311-L0H1; h0311-H1 / h0311-L0) VH: QVQLVQSGAEVKKPGSSVKVSCKASGYIFTDYNMHWVRQAPGQGLEWMGEINPNNGVVVYNQKFKGRVTITVDKSTSTAYMELSSLRSEDTAVYYCTRALYHSNFGWYFDSWGQGTLVTVSS VL: EIVLTQSPATLSLSPGERATLSCKASQSVDYDGDSHMNWYQQKPGQAPRLLIYTASNLESGIPARFSGSGSGTDFTLTISSLEPEDFAVYYCQQGNEDPWTFGQGTKVEIKR",no binding,binds
